Source: US20070167369A1, “Novel use of isolated polypeptide comprising four FAS-1 domains, EM1 domain and RGD motif” (KYUNGPOOK NATIONAL UNIVERSITY INDUSTRY-ACADEMIC COOPERATION …, priority 2004, published 2007)

B1: truncated βig-h3: recombinant human βig-h3 with EMI domain, all four fas-1 domains and RGD motif; residues 68-653 of SEQ ID NO: 1 (SEQ ID NO: 66) (protein, listed as Homo sapiens)
chain: WYQRKICGKSTVISYECCPGYEKVPGEKGCPAALPLSNLYETLGVVGSTTTQLYTDRTEKLRPEMEGPGSFTIFAPSNEAWASLPAEVLDSLVSNVNIELLNALRYHMVGRRVLTDELKHGMTLTSMYQNSNIQIHHYPNGIVTVNCARLLKADHHATNGVVHLIDKVISTITNNIQQIIEIEDTFETLRAAVAASGLNTMLEGNGQYTLLAPTNEAFEKIPSETLNRILGDPEALRDLLNNHILKSAMCAEAIVAGLSVETLEGTTLEVGCSGDMLTINGKAIISNKDILATNGVIHYIDELLIPDSAKTLFELAAESDVSTAIDLFRQAGLGNHLSGSERLTLLAPLNSVFKDGTPPIDAHTRNLLRNHIIKDQLASKYLYHGQTLETLGGKKLRVFVYRNSLCIENSCIAAHDKRGRYGTLFTMDRVLTPPMGTVMDVLKGDNRFSMLVAAIQSAGLTETLNREGVYTVFAPTNEAFRALPPRERSRLLGDAKELANILKYHIGDEILVSGGIGALVRLKSLQGDKLEVSLKNNVVSVNKEPVAEPDIMATNGVVHVITNVLQPPANRPQERGDELADSALEI
B2: fas-1 domain: recombinant protein containing the fourth fas-1 domain of human βig-h3 (SEQ ID NO: 64) (protein, listed as Homo sapiens)
chain: MGTVMDVLKGDNRFSMLVAAIQSAGLTETLNREGVYTVFAPTNEAFRALPPRERSRLLGDAKELANILKYHIGDEILVSGGIGALVRLKSLQGDKLEVSLKNNVVSVNKEPVAEPDIMATNGVVHVITNVL

Experiments:
HUVECs [1] = assay: Binding of biotin-βig-h3 to HUVECs, Western immuno-blotting (Example 3-4); parameters: species or system human; conditions: biotinylated βig-h3
Procedure: To confirm that HUVECs adhesion that is mediated by βig-h3 depends on αvβ3 integrin, the present inventors tested the binding affinity of βig-h3 in the presence of an antibody that specifically blocks the function of the integrin. This binding assay was performed according to the method described by Maile, L. A., et al., J. Biol. Chem., […].
First, HUVECs were suspended in medium at a density of 1×10^5 cells/ml. 1 ml of the cell suspension was preincubated with anti-[…] antibody (LM609) or anti-αvβ5 antibody (P1F6) at 37° C. for 30 minutes. Thereafter, the preincubated cells were incubated with biotinylated βig-h3 (hereinafter, referred to as “biotin-βig-h3”) in a serum-free medium containing 0.1% BSA at 4° C. for 5 hours. The biotin-βig-h3 was added at concentrations of […], respectively. Then, the cells were washed three times with PBS buffer (pH 7.4), and dissolved at 4° C. in ice-cold buffer A (10 mM Tris-Cl, pH 7.4, 150 mM NaCl, 1% Nonidet P-40, 1% sodium deoxycholate, 0.5% SDS, 0.02% sodium azide, 1 mM EDTA, 1 mM phenylmethylsulfonyl fluoride). The cell lysates were clarified by centrifugation at 13,000 rpm for 30 minutes at 4° C. Equal amounts of protein were then separated by SDS-PAGE, 8% gel. The amount of biotin-βig-h3 was determined by Western immuno-blotting. […]

HUVECs [2] = assay: Endothelial cell adhesion to plates coated with βig-h3 or its fas-1 domains (Example 2); type: cell-based, human; conditions: plate coated with 10 μg/ml protein; absorbance 405 nm
Procedure: Cell adhesion assay was performed according to the method described by Kim, J.-E. et al., J. Biol. Chem., 277:46159-46165, 2002. For this purpose, 10 μg/ml of each of the recombinant proteins (βig-h3 His-1-b, βig-h3 D-I, βig-h3 D-II, βig-h3 D-III and βig-h3 D-IV) prepared in Example 1 was placed into a flat-bottomed 96-well ELISA (enzyme-linked immunosorbent assay) plate (Costar, Corning Inc., NY) and then incubated overnight at 4° C., to coat the surface of the plate. As a control, 2% BSA was coated on the plate. Then, the plate was treated with PBS (phosphate-buffered saline) containing 2% BSA, and blocked at room temperature for one hour.
Meanwhile, HUVECs (human umbilical vein endothelial cells; Clonetics, San Diego, Calif.) were incubated in EGM medium (Clonetics, San Diego, Calif.) containing 2% FBS (Fetal Bovine Serum) under a condition of 37° C. and 5% CO2. The incubated cells were suspended in medium at a density of 3×10^5 cells/ml, and 0.1 ml of the cell suspension was added to each well of the plate. Next, the cells were incubated at 37° C. for 30 minutes and washed one time with PBS buffer to remove cells which had not been attached to the plate. […] The absorbance was measured at a 405-nm in a Bio-Rad model 550 microplate reader. Here, the higher the number of cells adhered to the plate, the higher the absorbance.

[3] = tested on: B16F10 tumor microvessels; assay: Intratumoral microvessel density, CD31 immunostaining (Example 15-2); type: in vivo, BALB/c nude mice; conditions: B16F10 tumors of treated mice
Procedure: To determine whether the reduced size of the indicated protein-treated tumors coincides with reduced neovascularization, the present inventors used six representative tumors to quantify the density of microvessels after immunostaining with CD31 antibody.
Concretly, intratumoral microvessel density (MVD) was analyzed on paraffin sections of B16F10 tumor using a rat anti-mouse CD31 monoclonal antibody (PharMingen, San Diego, Calif.). Immunoperoxidase staining was done using the Vectastain avidin-biotin complex Elite reagent kit (Vector Laboratories, Burlingame, Calif.). Sections were counterstained with Hematoxyline. MVD was assessed initially by scanning the tumor at low power, followed by identification of four areas at the tumor periphery containing the maximum number of discrete microvessels, and counting individual microvessels at a high power field (x200). Each group consisted of six or eight tumor tissue.

HUVECs [4] = assay: Adhesion of endothelial cells to fibronectin, vitronectin or collagen (Example 5-1); type: cell-based, human
Procedure: Flat-bottomed 96-well ELISA (enzyme-linked immunosorbent assay) plates (Costar, Corning Inc., NY) were incubated overnight at 4° C. with 10 μg/ml of fibronectin (Promega Inc., USA), vitronectin (Promega Inc., USA) and collagen, respectively, to coat the well surface. Then, a test was performed in the same manner as in Example 4-1 above.

β3/HEK293 cells = assay: Apoptosis by annexin V staining, β3/HEK293 cells expressing αvβ3 integrin (Example 8); type: cell-based; conditions: annexin V FACS
Procedure: To identify an integrin that mediates the induction of endothelial cell apoptosis by the fas-1 domain, the present inventors performed a test using HEK293 cells (β3/HEK293 and β5/HEK293) which had been transfected such as to express αvβ3 integrin or αvβ5 integrin.
For this purpose, a β3/HEK293 cell that expresses αvβ3 integrin was prepared in the following manner. In order to construct a human β3 integrin expression vector, RT-PCR using human placenta poly(A)^+ RNA as a template was first performed to produce 2.4-kb β3 cDNA (Chandrika, S. K. et al., J. Biol. Chem., 272:16390-16397, 1997). The amplified β3 cDNA was digested with HindIII/XbaI, and then cloned into a pcDNA3 vector (Invitrogen). The resulting vector was named “β3/pcDNA3”. Thereafter, 1 μg of the β3/pcDNA3 vector was introduced into HEK293 cells (ATCC, catalog No. CRL 1573) by lipofectamin (Gibco). As the vector contains a G418 selection marker, a stable transfected cell was screened using 1 mg/ml of G418. The cell transfected with the β3/pcDNA3 vector was named “β3/HEK293”.
pc/HEK293 cells, β3/HEK293 cells and β5/HEK293 cells were stained with annexin V to identify an integrin that mediates the induction of endothelial cell apoptosis by the fas-1 domain. Each of the cells was suspended in medium at a density of 5×10^5 cells/ml, added to each well of 6-well plated and incubated at 37° C. overnight. […]

Row | Molecule | binding to HUVECs surface (HUVECs [1]) | adhesion of endothelial cells to coated protein (HUVECs [2]) | CD31-positive microvessels in tumor (intratumoral microvessel density) [3] | inhibition of adhesion of HUVECs to collagen (HUVECs [4]; plate coated with 10 μg/ml collagen) | inhibition of adhesion of HUVECs to fibronectin (HUVECs [4]; plate coated with 10 μg/ml fibronectin) | inhibition of adhesion of HUVECs to vitronectin (HUVECs [4]; plate coated with 10 μg/ml vitronectin) | induction of apoptosis of β3/HEK293 cells (β3/HEK293 cells)
1 | B1 | bound to HUVECs surface in a dose-dependent manner | mediated the adhesion of endothelial cells | decrease in CD31-positive microvessels |  |  |  | 
2 | B2 |  |  |  | only partially inhibited | completely inhibited | completely inhibited | induced by the fas-1 domain in a dose-dependent manner
